Measured values from publication PMC13330650, “Phosphorylation of UDP-glucose dehydrogenase increases glycosaminoglycan biosynthesis and promotes tumor cell motility, spheroid growth, and therapeutic resistance” (Matrix biology : journal of the International Society for …, 2025).
Changes are numbered by the printed parent chain. In names and notes the source's numbering stands. Several values for one entry are separate records, joined by “and”; a condition that tells them apart may be missing. Equal values may be shown once.

B1: UDP-glucose 6-dehydrogenase (UGDH), human, wild type, recombinant (enzyme, UniProt O60701 1-494, looked up)
chain: MFEIKKICCIGAGYVGGPTCSVIAHMCPEIRVTVVDVNESRINAWNSPTLPIYEPGLKEVVESCRGKNLFFSTNIDDAIKEADLVFISVNTPTKTYGMGKGRAADLKYIEACARRIVQNSNGYKIVTEKSTVPVRAAESIRRIFDANTKPNLNLQVLSNPEFLAEGTAIKDLKNPDRVLIGGDETPEGQRAVQALCAVYEHWVPREKILTTNTWSSELSKLAANAFLAQRISSINSISALCEATGADVEEVATAIGMDQRIGNKFLKASVGFGGSCFQKDVLNLVYLCEALNLPEVARYWQQVIDMNDYQRRRFASRIIDSLFNTVTDKKIAILGFAFKKDTGDTRESSSIYISKYLMDEGAHLHIYDPKVPREQIVVDLSHPGVSEDDQVSRLVTISKDPYEACDGAHAVVICTEWDMFKELDYERIHKKMLKPAFIFDGRRVLDGLHNELQTIGFQIETIGKKVSSKRIPYAPSGEIPKFSLQDPPNKKPKV
notes: UDP-glucose 6-dehydrogenase, human; In solution a mix of hexamer (trimer of dimers) and dimer; also called UGDH WT; WT UGDH
B2: UGDH S316D, phosphomimetic point mutant, recombinant (enzyme, human, UniProt O60701 1-494, looked up)
chain: B1 chain with S316D
notes: UDP-glucose 6-dehydrogenase, human
B3: UGDH S316A, phosphodeficient point mutant, recombinant (enzyme, human, UniProt O60701 1-494, looked up)
chain: B1 chain with S316A
notes: as for B2
B4: UGDH T325D, obligate dimer mutant (enzyme, human)
chain: MFEIKKICCIGAGYVGGPTCSVIAHMCPEIRVTVVDVNESRINAWNSPTLPIYEPGLKEVVESCRGKNLFFSTNIDDAIKEADLVFISVNTPTKTYGMGKGRAADLKYIEACARRIVQNSNGYKIVTEKSTVPVRAAESIRRIFDANTKPNLNLQVLSNPEFLAEGTAIKDLKNPDRVLIGGDETPEGQRAVQALCAVYEHWVPREKILTTNTWSSELSKLAANAFLAQRISSINSISALCEATGADVEEVATAIGMDQRIGNKFLKASVGFGGSCFQKDVLNLVYLCEALNLPEVARYWQQVIDMNDYQRRRFASRIIDSLFNDVTDKKIAILGFAFKKDTGDTRESSSIYISKYLMDEGAHLHIYDPKVPREQIVVDLSHPGVSEDDQVSRLVTISKDPYEACDGAHAVVICTEWDMFKELDYERIHKKMLKPAFIFDGRRVLDGLHNELQTIGFQIETIGKKV
notes: UDP-glucose 6-dehydrogenase, human, with T325D; also called UGDH T325D dimeric mutant
B5: UGDH Δ132, hexameric mutant (enzyme, human)
chain: MFEIKKICCIGAGYVGGPTCSVIAHMCPEIRVTVVDVNESRINAWNSPTLPIYEPGLKEVVESCRGKNLFFSTNIDDAIKEADLVFISVNTPTKTYGMGKGRAADLKYIEACARRIVQNSNGYKIVTEKSTPVRAAESIRRIFDANTKPNLNLQVLSNPEFLAEGTAIKDLKNPDRVLIGGDETPEGQRAVQALCAVYEHWVPREKILTTNTWSSELSKLAANAFLAQRISSINSISALCEATGADVEEVATAIGMDQRIGNKFLKASVGFGGSCFQKDVLNLVYLCEALNLPEVARYWQQVIDMNDYQRRRFASRIIDSLFNTVTDKKIAILGFAFKKDTGDTRESSSIYISKYLMDEGAHLHIYDPKVPREQIVVDLSHPGVSEDDQVSRLVTISKDPYEACDGAHAVVICTEWDMFKELDYERIHKKMLKPAFIFDGRRVLDGLHNELQTIGFQIETIGKKV
notes: construct of earlier work; Named only once, as a control of the gel filtration

Target: the molecule itself
Experiment: SEC; gel filtration chromatography of the purified enzyme, before addition of substrate and cofactor; hexamer and dimer peaks

Q: Which “stoichiometry N” value does the source give for B1 here?
A: The value was 6 and 2.

Q: How did the “stoichiometry N” value turn out when B2 was run?
A: The value was 2.

Q: With B3 as the protein, how does the “stoichiometry N” value read?
A: Its value is 2.

Q: With B4 as the protein, how does the “stoichiometry N” value read?
A: The value was 2.

Q: For B5, which “stoichiometry N” value is on record?
A: Its value is 6.

Target: the molecule itself
Experiment: SEC; gel filtration chromatography of the purified enzyme with substrate and cofactor added (holocomplex)

Q: How did the “stoichiometry N” value turn out when B2 was run?
A: Its value is 6.

Q: B3 was tested. Which “stoichiometry N” value did it give?
A: Its value is 6.
